Experimental data reported in patent US20240052042A1 (Novartis, published 2024).
Positions count from the first letter of the chain named.

Key:
hNPR1-ANP complex [1] = biological target: T1, hNPR1-ANP complex (human, UniProt P01160 124-151, limits assumed); test: FabCys, parental value by Biacore, as in Table 5
T1 construct: hNPR1 antigen in the presence of ANP; also called hNPR1 + 100 nM ANP
T1 sequence: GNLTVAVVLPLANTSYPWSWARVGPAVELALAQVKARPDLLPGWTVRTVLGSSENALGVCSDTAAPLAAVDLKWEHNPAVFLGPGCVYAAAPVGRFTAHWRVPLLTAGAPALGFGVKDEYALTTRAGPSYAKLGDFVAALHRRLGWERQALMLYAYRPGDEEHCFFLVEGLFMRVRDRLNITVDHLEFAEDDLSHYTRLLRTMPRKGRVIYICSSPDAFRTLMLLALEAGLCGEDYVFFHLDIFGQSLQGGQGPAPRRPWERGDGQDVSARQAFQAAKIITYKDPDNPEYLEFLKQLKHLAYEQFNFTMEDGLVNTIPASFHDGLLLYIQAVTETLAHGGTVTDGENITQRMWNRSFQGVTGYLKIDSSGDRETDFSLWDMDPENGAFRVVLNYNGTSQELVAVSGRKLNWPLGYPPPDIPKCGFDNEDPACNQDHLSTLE
T1 sequence (peptide): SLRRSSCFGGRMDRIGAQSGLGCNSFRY

rNPR1-ANP complex [2] = biological target: T2, rNPR1-ANP complex (rat, UniProt P01160 124-151 (human entry), limits assumed); test: FabCys, parental value by Biacore, as in Table 5
T2 construct: rNPR1 antigen in the presence of ANP; also called rNPR1 + 100 nM ANP
T2 sequence: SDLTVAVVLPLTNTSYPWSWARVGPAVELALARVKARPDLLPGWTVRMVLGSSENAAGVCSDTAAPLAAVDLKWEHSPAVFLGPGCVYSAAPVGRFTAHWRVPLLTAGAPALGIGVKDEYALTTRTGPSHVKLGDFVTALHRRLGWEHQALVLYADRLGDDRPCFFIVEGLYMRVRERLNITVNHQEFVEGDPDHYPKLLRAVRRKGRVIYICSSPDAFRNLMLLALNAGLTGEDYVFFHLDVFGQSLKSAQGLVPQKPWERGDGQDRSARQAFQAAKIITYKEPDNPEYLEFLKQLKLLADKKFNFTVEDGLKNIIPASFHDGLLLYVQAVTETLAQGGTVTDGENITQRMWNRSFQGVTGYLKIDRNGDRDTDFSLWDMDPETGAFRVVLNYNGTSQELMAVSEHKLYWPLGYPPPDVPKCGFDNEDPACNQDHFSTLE
T2 sequence (peptide): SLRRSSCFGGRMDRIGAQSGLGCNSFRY

[3] = biological target: T3, human NPR1 on CHO-K1 cells (human, UniProt P16066 33-1061); test: cell-based or functional assay
T3 sequence: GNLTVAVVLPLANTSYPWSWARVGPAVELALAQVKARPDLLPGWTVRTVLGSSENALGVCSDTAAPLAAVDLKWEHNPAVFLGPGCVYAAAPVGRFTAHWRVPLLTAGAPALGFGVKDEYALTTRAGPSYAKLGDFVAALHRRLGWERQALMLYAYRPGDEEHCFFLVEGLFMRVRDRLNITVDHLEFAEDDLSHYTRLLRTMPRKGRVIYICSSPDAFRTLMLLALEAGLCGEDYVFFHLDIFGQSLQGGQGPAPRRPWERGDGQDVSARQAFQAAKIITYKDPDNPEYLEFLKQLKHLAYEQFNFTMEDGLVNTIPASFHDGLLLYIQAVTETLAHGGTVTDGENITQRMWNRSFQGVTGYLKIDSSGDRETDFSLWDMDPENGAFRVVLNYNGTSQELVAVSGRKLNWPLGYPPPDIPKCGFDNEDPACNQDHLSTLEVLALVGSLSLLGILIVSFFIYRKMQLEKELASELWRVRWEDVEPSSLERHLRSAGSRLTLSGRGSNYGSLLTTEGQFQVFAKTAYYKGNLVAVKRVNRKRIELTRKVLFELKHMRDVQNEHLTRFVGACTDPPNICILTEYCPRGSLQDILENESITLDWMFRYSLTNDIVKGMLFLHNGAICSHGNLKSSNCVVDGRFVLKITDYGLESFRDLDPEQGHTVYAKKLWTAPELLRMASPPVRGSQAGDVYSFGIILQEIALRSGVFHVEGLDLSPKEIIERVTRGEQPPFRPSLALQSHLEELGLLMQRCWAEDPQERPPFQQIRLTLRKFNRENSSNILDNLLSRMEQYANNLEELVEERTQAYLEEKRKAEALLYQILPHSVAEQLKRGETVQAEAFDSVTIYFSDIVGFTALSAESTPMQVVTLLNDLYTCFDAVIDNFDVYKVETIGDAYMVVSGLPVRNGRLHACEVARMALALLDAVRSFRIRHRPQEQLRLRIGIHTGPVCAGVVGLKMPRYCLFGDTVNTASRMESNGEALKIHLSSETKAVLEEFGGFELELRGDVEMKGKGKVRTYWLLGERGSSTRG

hNPR1-ANP complex [4] = biological target: T1, hNPR1-ANP complex; test: FabCys affinity (Biacore per paragraph 323)
rNPR1-ANP complex [5] = biological target: T2, rNPR1-ANP complex; test: FabCys affinity (Biacore per paragraph 323)
rat NPR1 (rNPR1) [6] = biological target: T4, rat NPR1 (rNPR1) (rat, UniProt P18910 29-469, limits assumed); test: Octet, FabCys
T4 construct: Soluble antigen
T4 sequence: T2 sequence

hNPR1-ANP complex [7] = biological target: T1, hNPR1-ANP complex; test: Octet, FabCys
rNPR1-ANP complex [8] = biological target: T2, rNPR1-ANP complex; test: Octet, FabCys
rat NPR1 (rNPR1) [9] = biological target: T4, rat NPR1 (rNPR1); test: SET, FabCys
[10] = biological target: T5, human Natriuretic Peptide Receptor 1 (hNPR1) (human, UniProt P16066 33-473, limits assumed); test: SET, FabCys
T5 construct: pannings used NPR1-hFc; also called NPR1-hFc
T5 sequence: T1 sequence

hNPR1-ANP complex [11] = biological target: T1, hNPR1-ANP complex; test: SET, FabCys
rNPR1-ANP complex [12] = biological target: T2, rNPR1-ANP complex; test: SET, FabCys
[13] = biological target: T3, human NPR1 on CHO-K1 cells; test: cell-based or functional assay; remark: listed apart in the source
[14] = biological target: T5, human Natriuretic Peptide Receptor 1 …; test: FabCys affinity (Octet per Table 18 comment)
hNPR1-ANP complex [15] = biological target: T1, hNPR1-ANP complex; test: FabCys affinity (Octet per Table 18 comment)
rNPR1-ANP complex [16] = biological target: T2, rNPR1-ANP complex; test: FabCys affinity (Octet per Table 18 comment)
[17] = biological target: T5, human Natriuretic Peptide Receptor 1 …; test: FabCys, parental value by Octet (table comment), as in Table 14
hNPR1-ANP complex [18] = biological target: T1, hNPR1-ANP complex; test: as above
rNPR1-ANP complex [19] = biological target: T2, rNPR1-ANP complex; test: as above
hNPR1-ANP complex [20] = biological target: T1, hNPR1-ANP complex; test: FRET ANP competition assay, IgG titrated on hNPR1 with Cy5-labeled ANP; negative values mean more ANP signal [Cont.), panel XX07]
Experimental: The same 31 IgGs were tested for ANP competition using a Fluorescence Resonance Energy Transfer (FRET)-based assay in which the NPR1-specific antibodies competed with ANP for binding to NPR1. In this FRET based assay (see FIG. 3), Eu-labeled Streptavidin (for measurement of IgGs) or Eu-labeled anti-hFc antibody (for measurement of FabCys) was used as an energy donor, while Cy5-labeled ANP was used as an acceptor (for all measurements). The resulting fluorescent signal was decreased by ANP-competitive antibodies. The assay was performed as follows: antibodies were mixed with NPR1 and incubated for 5 minutes at room temperature. […] After a further 60-minute incubation, readout was performed using a TECAN Infinite M1000 Pro using an excitation wavelength of 317 nm and an emission wavelength of 665 nm. Percentage of ANP competition was calculated according to the following formulae: […]
Furthermore, the clones were tested via ELISA for binding to the following antigens: human NPR1, constitutively active human NPR1 mutant (W74R), rat NPR1, human NPR3 (counter target), each in the absence and presence of ANP, and BSA. The clones were also analyzed by flow cytometry for binding to human NPR1 expressing CHO K1 cells in absence and presence of ANP (100 nM) and to parental CHO K1 cells.

[21] = biological target: T6, human NPR1 on CHO-K1 cells in the presence of ANP (human, UniProt P01160 124-151); test: flow cytometry (FL2-H) on hNPR1 CHO-K1 cells with saturating ANP, IgG titrated; control parental CHO-K1 [Cont.), panel XX07]
T6 construct: also called hNPR1 CHO K1 + 100 nM ANP
T6 sequence: T3 sequence
T6 sequence (peptide): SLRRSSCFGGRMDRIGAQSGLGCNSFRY

hNPR1-ANP complex [22] = biological target: T1, hNPR1-ANP complex; test: FRET ANP competition assay, IgG titrated on hNPR1 with Cy5-labeled ANP; negative values mean more ANP signal [Cont.), panel XX12]
Experimental: The same 31 IgGs were tested for ANP competition using a Fluorescence Resonance Energy Transfer (FRET)-based assay in which the NPR1-specific antibodies competed with ANP for binding to NPR1. In this FRET based assay (see FIG. 3), Eu-labeled Streptavidin (for measurement of IgGs) or Eu-labeled anti-hFc antibody (for measurement of FabCys) was used as an energy donor, while Cy5-labeled ANP was used as an acceptor (for all measurements). The resulting fluorescent signal was decreased by ANP-competitive antibodies. The assay was performed as follows: antibodies were mixed with NPR1 and incubated for 5 minutes at room temperature. After addition of the Eu-labeled donor and incubation for 30 minutes at room temperature, the Cy5-ANP solution was added. After a further 60-minute incubation, readout was performed using a TECAN Infinite M1000 Pro using an excitation wavelength of 317 nm and an emission wavelength of 665 nm. Percentage of ANP competition was calculated according to the following formulae: […]

[23] = biological target: T6, human NPR1 on CHO-K1 cells in the …; test: flow cytometry (FL2-H) on hNPR1 CHO-K1 cells with saturating ANP, IgG titrated; control parental CHO-K1 [Cont.), panel XX12]

B1: WW01 (FabCys format) (Fab, V domains shown)
VH: QVQLLESGGGLVQPGGSLRLSCAASGFTFNTHYIHWVRQAPGKGLEWVSSISGSGSNTYYADSVKGRFTISRDNSKNTLYLQMNSLRAEDTAVYYCARERGYVYYHMFDPWGQGTLVTVSS
VL: DIVLTQSPATLSLSPGERATLSCRASQSITRNYLAWYQQKPGQAPRLLIYGASSRATGIPARFSGSGSGTDFTLTISSLEPEDFAVYYCQQHSMYPRTFGQGTKVEIK
notes: Monovalent disulfide-bridged FabCys
**Q.** Which Kd (hNPR1-ANP complex [1]) does the source give for B1 here?
**A.** 1.5 nM

**Q.** What about the Kd (rNPR1-ANP complex [2]) of the same binder?
**A.** 2 nM

**Q.** And the “cGMP conc [nM] at 2 µM FabCys, +0.075 nM ANP” value [3]?
**A.** 121 nM

**Q.** And the “cGMP conc [nM] at 2 µM FabCys, without ANP” value [3]?
**A.** 30 nM

**Q.** And the Kd (hNPR1-ANP complex [4])?
**A.** 1.5 nM

**Q.** What about the Kd (rNPR1-ANP complex [5]) of the same binder?
**A.** 2 nM

B2: ZZ13 (FabCys format) (Fab, V domains shown)
VH: EVQLVESGGGLVQPGGSLRLSCAASGFTFSRYYINWVRQAPGKGLEWVASIHQHGLETRYVESVKGRFTISRDNAKNSLYLQMNSLRAEDTAVYYCARSLRRRSTEHAGFDVWGQGTLVTVSS
VL: DIQMTQSPSSLSASVGDRVTITCRASQGISNYLAWYQQKPGKVPKLLIYAASTLQSGVPSRFSGSGSGTDFTLTISSLQPEDVATYYCQQADKFPYTFGQGTKVEIK
notes: Monovalent FabCys
**Q.** With B2 as the binder, how does the Kd (rat NPR1 (rNPR1) [6]) read?
**A.** 66 nM

**Q.** And the Kd (hNPR1-ANP complex [7])?
**A.** 0.14 nM

**Q.** And the Kd (rNPR1-ANP complex [8])?
**A.** 0.1 nM

**Q.** And the Kd (rat NPR1 (rNPR1) [9])?
**A.** 2.3 nM

**Q.** And the Kd [10]?
**A.** 9.9 nM

**Q.** What about the Kd (hNPR1-ANP complex [11]) of the same binder?
**A.** 1.3 nM

**Q.** And the Kd (rNPR1-ANP complex [12])?
**A.** 1.4 nM

B3: YY04 (FabCys format) (Fab, V domains shown)
VH: EVQLVESGGGLVKPGGSLRLSCAASGFTFSNYWISWVRQAPGKGLEWVGRIKSKTYGGTTDYAEPVKGRFTISRDDSKNTLYLQMNSLKTEDTAVYYCAREKYSIRARGHGDYGFDVWGQGTLVTVSS
VL: B2 VL with A91G, D92Y, K93H, F94A, Y96F
notes: Monovalent FabCys
**Q.** Which results are given for B3?
**A.** cGMP conc [nM] at 1 µM FabCys, +0.075 nM ANP [13]: 67 nM; cGMP conc [nM] at 1 µM FabCys, without ANP [13]: 18 nM; Kd [14]: 4.9 nM; Kd (hNPR1-ANP complex [15]): 1.1 nM; Kd (rNPR1-ANP complex [16]): 1 nM; Kd [17]: 4.9 nM; Kd (hNPR1-ANP complex [18]): 1.1 nM; Kd (rNPR1-ANP complex [19]): 1 nM

B4: XX07 (IgG format) (antibody, V domains shown)
VH: QVQLLESGGGLVQPGGSLRLSCAASGFTFSSYWMNWVRQAPGKGLEWVSAISSDGSYTYYADSVKGRFTISRDNSKNTLYLQMNSLRAEDTAVYYCARDRYSMIYSYGAGAFDYWGQGTLVTVSS
VL: B2 VL with N31S, V43A, A50T, V83F, A91I, D92W, K93T, F94V, Y96R
**Q.** For B4, which “EC50 (read off the curve)” value (hNPR1-ANP complex [20]) is on record?
**A.** ~0.3 nM

**Q.** What about the “EC50 (read off the curve)” value [21] of the same binder?
**A.** ~2 nM

B5: XX12 (IgG format) (antibody, V domains shown)
VH: B4 VH
VL: B2 VL with N31S, V43A, A50T, V83F, A91I, D92W, K93M, F94A, Y96R
**Q.** With B5 as the binder, how does the “EC50 (read off the curve)” value (hNPR1-ANP complex [22]) read?
**A.** ~0.4 nM

**Q.** And the “EC50 (read off the curve)” value [23]?
**A.** ~0.8 nM
